Data published in patent publication US20250215104A1 (WALDEN BIOSCIENCES, published 2025).

T1: mouse cell surface uPAR (muPAR) (mouse, UniProt P35456 24-298)
T1 construct: whole, on cells; also called mouse uPAR
T1 sequence (looked up): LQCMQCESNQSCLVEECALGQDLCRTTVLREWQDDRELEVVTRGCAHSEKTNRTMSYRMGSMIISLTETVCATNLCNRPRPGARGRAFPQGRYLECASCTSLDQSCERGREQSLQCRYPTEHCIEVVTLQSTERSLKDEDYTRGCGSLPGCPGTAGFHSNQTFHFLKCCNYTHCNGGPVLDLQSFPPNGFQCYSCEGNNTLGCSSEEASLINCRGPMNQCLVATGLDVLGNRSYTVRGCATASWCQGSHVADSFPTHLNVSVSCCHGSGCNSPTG


How the values were obtained:
[1] = target: T2, human soluble urokinase plasminogen activator receptor (suPAR) (human, UniProt Q03405 23-303, limits assumed); test: dissociation rate (kdis) on human suPAR; method not stated
T2 construct: also called hsuPAR; human suPAR

[2] = target: T3, human neonatal FcRn receptor (hFcRn), biotinylated (human, UniProt P55899 24-297, biotinylated (site not stated)); test: BLI (Octet Red96E), biotinylated hFcRn on SA sensor, WAb0014 as analyte, acidic conditions (pH 6)
T3 construct: also called FcRn receptors; neonatal FcRn receptors
Protocol: Biotinylated hFcRn protein was sourced from Acro Biosystems and immobilized on a SA biosensor. […] Binding affinity (KD, nM) was calculated from the response rate constants as described above.

[3] = target: T1, mouse cell surface uPAR (muPAR); test: flow cytometry on undifferentiated mouse podocytes, FITC secondary antibody
Protocol: Gene expression of mouse uPAR in undifferentiated mouse podocyte cells was undertaken using commercial gene specific qPCR probes for mouse and human uPAR and normalized to 18S housekeeping gene expression using manufacturers RT-qPCR protocol (Thermofisher). Separately, mouse podocytes were incubated with 100 μg/mL concentration of anti-hsuPAR and Proteintech positive control anti-mouse uPAR antibodies at 4° C. for 1 hr. After 2 cycles of wash to remove any unbound antibody, cells were incubated with 10 μg/mL of a goat-anti-human-FITC or goat-anti-mouse-FITC or goat-anti-rabbit-FITC conjugated secondary antibody for 1 hr at 4° C. After washing any unbound secondary antibody, cell suspensions for each sample was gated for single cells and population mean fluorescence intensity was recorded and analyzed on a Luminex Flowsight flow cytometer. Mean fluorescence intensity for test samples was plotted in GraphPad Prism software and compared to positive control sample data.

[4] = target: T4, human suPAR (hsuPAR) recombinant protein (human, UniProt Q03405 23-303); test: BLI (Octet Red96E), WAb0014 immobilized on AHC sensor, hsuPAR as analyte
T4 construct: it is written here as the same molecule; also called recombinant hsuPAR
Protocol: (§1) Analyte global association (kₐ) and disassociation […] rates were calculated using in-built functions to determine binding affinity (KD)

[5] = target: T5, cell surface human uPAR (huPAR) (human, UniProt Q03405 23-305); test: flow cytometry on human podocytes, FITC secondary antibody, MFI against concentration
T5 construct: whole, on cells; also called cell surface huPAR; cell surface uPAR
Protocol: After 2 cycles of wash to remove any unbound antibody, cells were incubated with 10 μg/mL of a goat-anti-human-FITC conjugated secondary antibody for 1 hr at 4° C.

[6] = target: T4, human suPAR (hsuPAR) recombinant protein; test: BLI (Octet Red96E), hsuPAR immobilized on streptavidin sensor, WAb0014 as analyte
Protocol: as §1

[7] = target: T6, cynomolgus suPAR (cynomolgus, UniProt Q9GK78 23-303, limits assumed); test: BLI (Octet Red 96E), antibody immobilized
T6 construct: also called Cynomolgus suPAR isoform protein; cynomolgus uPAR
Description: Recombinantly expressed proteins for hsuPAR isoform 1-D2D3 fragment and hsuPAR-3 isoforms were custom generated in HEK or CHO cells and purified by Genscript from the known amino-acid sequence of hsuPAR-1 and hsuPAR-3 respectively. Cynomolgus suPAR isoform protein was commercially obtained from Creative Biomart.

[8] = target: T7, Fc-gammaR1 receptor recombinant protein, biotinylated (Homo sapiens (Human), UniProt P12314 16-292, Biotinylated for capture on the sensor; the site of biotin is not stated in the passages seen.); test: BLI (Octet Red96E), biotinylated Fc-gammaR1 on streptavidin sensor, antibody as analyte
T7 construct: also called Fc-gammaR1 isoform
Protocol: Antibody induced immune response is known to be mediated by interaction with Fc-gamma receptors. Immunologic response potential of WAL0921-ΔK was assessed biophysically on an Octet Red96E platform by measuring the binding affinity to Fc-gammaR1, high affinity Fc-gammaR2a and high affinity Fc-gammaR3a receptor recombinant proteins.
Biotinylated Fc-gamma proteins were procured from Acro Biosystems and immobilized on a streptavidin biosensor. Increasing concentrations of analyte WAL0921-ΔK were then applied, and responses measured. Binding affinity (KD, nM) was calculated from the response rate constants as described above.

T2 sequence (Q03405 23-303 limits assumed): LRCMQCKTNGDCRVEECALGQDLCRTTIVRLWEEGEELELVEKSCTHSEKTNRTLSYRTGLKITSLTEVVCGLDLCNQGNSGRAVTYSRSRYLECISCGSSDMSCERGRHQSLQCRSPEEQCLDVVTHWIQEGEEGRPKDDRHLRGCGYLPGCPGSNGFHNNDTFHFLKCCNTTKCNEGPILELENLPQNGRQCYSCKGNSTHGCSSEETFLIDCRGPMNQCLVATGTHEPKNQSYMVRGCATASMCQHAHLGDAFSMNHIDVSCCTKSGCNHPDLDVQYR
T4 sequence (Q03405 23-303): as the sequence (Q03405 23-303 limits assumed) above
T7 sequence (P12314 16-292 limits assumed, form in doubt): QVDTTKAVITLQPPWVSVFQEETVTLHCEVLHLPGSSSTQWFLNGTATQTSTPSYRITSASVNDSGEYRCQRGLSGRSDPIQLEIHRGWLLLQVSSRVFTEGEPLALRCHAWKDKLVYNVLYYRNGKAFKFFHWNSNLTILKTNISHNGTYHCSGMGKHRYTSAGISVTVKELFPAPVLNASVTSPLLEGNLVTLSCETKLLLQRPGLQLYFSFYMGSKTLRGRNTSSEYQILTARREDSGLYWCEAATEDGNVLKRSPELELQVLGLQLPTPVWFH
T6 sequence (Q9GK78 23-303 limits assumed): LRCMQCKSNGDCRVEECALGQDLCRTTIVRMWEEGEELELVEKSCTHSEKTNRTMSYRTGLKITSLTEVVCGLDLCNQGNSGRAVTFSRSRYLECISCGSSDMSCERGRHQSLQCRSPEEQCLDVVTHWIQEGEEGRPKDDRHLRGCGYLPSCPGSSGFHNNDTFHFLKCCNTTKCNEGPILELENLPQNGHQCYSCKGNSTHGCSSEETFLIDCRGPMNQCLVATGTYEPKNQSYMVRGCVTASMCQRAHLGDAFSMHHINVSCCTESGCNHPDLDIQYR
T3 sequence (P55899 24-297 limits assumed, form in doubt): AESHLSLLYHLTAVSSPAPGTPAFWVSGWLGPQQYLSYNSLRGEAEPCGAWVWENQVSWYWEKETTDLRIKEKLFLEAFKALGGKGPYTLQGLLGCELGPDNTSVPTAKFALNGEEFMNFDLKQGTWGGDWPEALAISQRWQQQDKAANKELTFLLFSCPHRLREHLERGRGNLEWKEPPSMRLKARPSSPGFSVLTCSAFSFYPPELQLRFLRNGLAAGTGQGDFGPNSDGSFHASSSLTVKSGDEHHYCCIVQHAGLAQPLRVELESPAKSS
T5 sequence (Q03405 23-305): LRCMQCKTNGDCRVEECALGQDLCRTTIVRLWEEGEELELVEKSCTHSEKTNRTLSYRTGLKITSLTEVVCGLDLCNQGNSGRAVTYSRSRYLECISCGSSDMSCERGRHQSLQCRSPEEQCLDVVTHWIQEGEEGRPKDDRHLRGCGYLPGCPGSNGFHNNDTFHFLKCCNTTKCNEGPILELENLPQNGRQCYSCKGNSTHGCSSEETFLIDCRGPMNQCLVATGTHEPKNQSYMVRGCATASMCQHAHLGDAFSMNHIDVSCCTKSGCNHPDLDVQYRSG

| Binder | koff [1] | binding result [3] | also measured |
| --- | --- | --- | --- |
| WAb0014 (antibody, also called original candidate; WAL0921 without P330G) heavy: not shown light: DIQMTQSPSSLSASVGDRVTITCSARQSVSYMYWYQQKPGKAPKLLIYRTSNLASGVPSRFSGSGSGTDFTLTISSLQPEDFATYYCQQYHSYPPTFGGGTKVEIKRTVAAPSVFIFPPSDEQLKSGTASVVCLLNNFYPREAKVQWKVDNALQSGNSQESVTEQDSKDSTYSLSSTLTLSKADYEKHKVYACEVTHQGLSSPVTKSFNRGEC | 2.57e-07 s⁻¹ | – | – |
| WAb0014 (antibody, human IgG1, human kappa; also called initial anti-suPAR antibody; original candidate; copies: 2 + 2) heavy: not shown light: DIQMTQSPSSLSASVGDRVTITCSARQSVSYMYWYQQKPGKAPKLLIYRTSNLASGVPSRFSGSGSGTDFTLTISSLQPEDFATYYCQQYHSYPPTFGGGTKVEIKRTVAAPSVFIFPPSDEQLKSGTASVVCLLNNFYPREAKVQWKVDNALQSGNSQESVTEQDSKDSTYSLSSTLTLSKADYEKHKVYACEVTHQGLSSPVTKSFNRGEC | – | no binding (tested: 100 µg/mL) | Kd [2]: 0.025 nM; Kd [4]: 0.69 to 2 nM; Kd [5]: 1 to 3 nM; Kd [6]: < 0.1 nM; Kd [7]: 10.5 nM |
| WAL0921-ΔK (antibody, Same as WAL0921 but without the C-terminal lysine of the heavy chain (K448 of the whole heavy chain); also called WAL0921 without K448) heavy: not shown light: DIQMTQSPSSLSASVGDRVTITCSARQSVSYMYWYQQKPGKAPKLLIYRTSNLASGVPSRFSGSGSGTDFTLTISSLQPEDFATYYCQQYHSYPPTFGGGTKVEIKRTVAAPSVFIFPPSDEQLKSGTASVVCLLNNFYPREAKVQWKVDNALQSGNSQESVTEQDSKDSTYSLSSTLTLSKADYEKHKVYACEVTHQGLSSPVTKSFNRGEC | – | – | Kd [8]: 1750 nM |
| WAb0016 (antibody, V domains shown, constant regions not tied to this antibody; also called WAb CD0016) VH: QVQLVQSGAEVKKPGASVKVSCKASGYTFTNYYIHWVRQAPGQGLEWMGWISPSSGGTKYAQKFQGRVTMTRDTSTSTVYMELSSLRSEDTAVYYCARGYDVDWFVYWGQGTLVTVSS VL: DIQMTQSPSSLSASVGDRVTITCSARSSVSYMYWYQQKPGKAPKLLIYRTSNLASGVPSRFSGSGSGTDFTLTISSLQPEDFATYYCQQYHSYPPTFGGGTKVEIK | 0.000213 s⁻¹ | – | – |
| WAb0017 (antibody, V domains shown, constant regions not tied to this antibody; also called WAb CD0017) VH: QVQLVQSGAEVKKPGASVKVSCKASGYTFSAYYMHWVRQAPGQGLEWMGWIDHENGNTIYDQKFQGRVTMTRDTSTSTVYMELSSLRSEDTAVYYCARGYDVDWFVYWGQGTLVTVSS VL: DIQMTQSPSSLSASVGDRVTITCRARQSVSYMYWYQQKPGKAPKLLIYRTSNLASGVPSRFSGSGSGTDFTLTISSLQPEDFATYYCQQYHSYPPTFGGGTKVEIK | 3.63e-07 s⁻¹ | – | – |
| WAb0018 (antibody, V domains shown, constant regions not tied to this antibody; also called WAb CD0018) VH: QVQLVQSGAEVKKPGASVKVSCKASGYTFTNYYMHWVRQAPGQGLEWMGWIDHENGNTIYDQKFQGRVTMTRDTSTSTVYMELSSLRSEDTAVYYCARGYDVDWFVYWGQGTLVTVSS VL: DIQMTQSPSSLSASVGDRVTITCSASSSISYMYWYQQKPGKAPKLLIYRTSNLASGVPSRFSGSGSGTDFTLTISSLQPEDFATYYCQQYHSYPPTFGGGTKVEIK | 2.6e-07 s⁻¹ | – | – |

Second part, led by results:

| koff [1] | binding result [3] | Binder | also measured |
| --- | --- | --- | --- |
| – | no binding (tested: 100 µg/mL) | WAb0006 (antibody, human IgG1, V domains shown, The listing names these entries 'WAb CD0006'; Fc region identical to WAb0014 (human IgG1, L235A, L236A); human kappa; also called original backup candidate) VH: QVQLVQSGAEVKKPGASVKVSCKASGYTFTSHYIQWVRQAPGQGLEWMGWIDHENGNTIYDQKFQGRVTMTRDTSTSTVYMELSSLRSEDTAVYYCARGTDVDWFVYWGQGTLVTVSS VL: DIQMTQSPSSLSASVGDRVTITCSARSSVSYMYWYQQKPGKAPKLLIYRTSNLASGVPSRFSGSGSGTDFTLTISSLQPEDFATYYCQQYHSYPPTFGGGTKVEIKR | – |
| – | no binding (tested: 100 µg/mL) | WAb0008 (antibody, IgG2a, V domains shown, The listing names these entries 'WAb CD0008'; WAb0006 VH + mIgG2a Fc with L235A and L236A; WAb0006 VL + mouse kappa constant; also called WAb008; mouse IgG2a version of WAb0006) VH: QVQLVQSGAEVKKPGASVKVSCKASGYTFTSHYIQWVRQAPGQGLEWMGWIDHENGNTIYDQKFQGRVTMTRDTSTSTVYMELSSLRSEDTAVYYCARGTDVDWFVYWGQGTLVTVSS VL: DIQMTQSPSSLSASVGDRVTITCSARSSVSYMYWYQQKPGKAPKLLIYRTSNLASGVPSRFSGSGSGTDFTLTISSLQPEDFATYYCQQYHSYPPTFGGGTKVEIK | – |
| 3.43e-07 s⁻¹ | – | WAb0019 (antibody, V domains shown, constant regions not tied to this antibody; also called WAb CD0019) VH: QVQLVQSGAEVKKPGASVKVSCKASGYTFSSYYMHWVRQAPGQGLEWMGWIDHENGNTIYAQKFQGRVTMTRDTSTSTVYMELSSLRSEDTAVYYCARGYDVDWFVYWGQGTLVTVSS VL: DIQMTQSPSSLSASVGDRVTITCSARSSVSYMYWYQQKPGKAPKLLIYRTSNLASGVPSRFSGSGSGTDFTLTISSLQPEDFATYYCQQYHSYPPTFGGGTKVEIK | – |
| 3.42e-07 s⁻¹ | – | WAb0020 (antibody, V domains shown, constant regions not tied to this antibody; also called WAb CD0020) VH: QVQLVQSGAEVKKPGASVKVSCKASGYTFTSHYVHWVRQAPGQGLEWMGWIDHENGNTIYDQKFQGRVTMTRDTSTSTVYMELSSLRSEDTAVYYCARGYDVDWFVYWGQGTLVTVSS VL: DIQMTQSPSSLSASVGDRVTITCSARSSVSYMYWYQQKPGKAPKLLIYRTSNLASGVPSRFSGSGSGTDFTLTISSLQPEDFATYYCQQYHSYPPTFGGGTKVEIK | – |
